# Reference: patent US12624075B2, “Immune inducer” (TORAY INDUSTRIES, INC., priority 2015, dated 2026)
# System: U251 cells
# Test: Cytotoxicity assay (chromium 51 release) of induced HLA-A0201-positive CD8-positive T cells against U251 cells
# Format: cell-based, human
# Conditions: 5×10^4 T cells with 1×10^3 U251 cells, 4 hours; FIG. 4A; higher/lower = SEQ ID NOs: 3 to 19 versus SEQ ID NOs: 75 to 83 and full-length PDS5A protein
# Source text: Subsequently, the following were examined: whether or not the polypeptides having the amino acid sequences represented by SEQ ID NOs: 3 to 19, which are used in the present invention, are presented on the HLA-A0201 molecules on tumor cells which are HLA-A0201-positive and which express human PDS5A protein; whether or not the CD8-positive T cells stimulated with the polypeptides according to the present invention can damage the tumor cells which are HLA-A0201-positive and which express the human PDS5A protein; and further, whether or not the above described CD8-positive T cells have a markedly higher ability to damage the tumor cells as compared to the CD8-positive T cells stimulated with the known peptides (SEQ ID NOs: 75 to 83) and those stimulated with the PDS5A protein.
# Each of the total 10 types of cell lines whose expression of human PDS5A protein has been confirmed, namely: a human glioma (malignant brain tumor) cell line U251 cells; a leukemia cell line Jurkat cells; a liver cancer cell line SK-Hep1; a breast cancer cell line MCF7; a pancreatic cancer cell line Panc1; an ovarian cancer cell line OVCAR3; a renal cancer cell line A498; a colorectal cancer cell line HCT116; a stomach cancer cell line KATO3; and a lung cancer cell line NCI-H522 (purchased from ATCC); were collected into a 50 mL centrifugal tube, in an amount of 1×10^6 cells each. […]
molecule,measurement,value
"full-length PDS5A protein: human PDS5A protein of 1337 amino acid residues, prepared according to Example 5 in WO 2011/027807; Comparative Example (protein, listed as Homo sapiens) MDFTAQPKPATALCGVVSADGKIAYPPGVKEITDKITTDEMIKRLKMVVKTFMDMDQDSEDEKQQYLPLALHLASEFFLRNPNKDVRLLVACCLADIFRIYAPEAPYTSHDKLKDIFLFITRQLKGLEDTKSPQFNRYFYLLENLAWVKSYNICFELEDCNEIFIQLFRTLFSVINNSHNKKVQMHMLDLMSSIIMEGDGVTQELLDSILINLIPAHKNLNKQSFDLAKVLLKRTVQTIEACIANFFNQVLVLGRSSVSDLSEHVFDLIQELFAIDPHLLLSVMPQLEFKLKSNDGEERLAVVRLLAKLFGSKDSDLATQNRPLWQCFLGRFNDIHVPVRLESVKFASHCLMNHPDLAKDLTEYLKVRSHDPEEAIRHDVIVTIITAAKRDLALVNDQLLGFVRERTLDKRWRVRKEAMMGLAQLYKKYCLHGEAGKEAAEKVSWIKDKLLHIYYQNSIDDKLLVEKIFAQYLVPHNLETEERMKCLYYLYASLDPNAVKALNEMWKCQNMLRSHVRELLDLHKQPTSEANCSAMFGKLMTIAKNLPDPGKAQDFVKKFNQVLGDDEKLRSQLELLISPTCSCKQADICVREIARKLANPKQPTNPFLEMVKFLLERIAPVHIDSEAISALVKLMNKSIEGTADDEEEGVSPDTAIRSGLELLKVLSFTHPTSFHSAETYESLLQCLRMEDDKVAEAAIQIFRNTGHKIETDLPQIRSTLIPILHQKAKRGTPHQAKQAVHCIHAIFTNKEVQLAQIFEPLSRSLNADVPEQLITPLVSLGHISMLAPDQFASPMKSVVANFIVKDLLMNDRSTGEKNGKLWSPDEEVSPEVLAKVQAIKLLVRWLLGMKNNQSKSANSTLRLLSAMLVSEGDLTEQKRISKSDMSRLRLAAGSAIMKLAQEPCYHEIITPEQFQLCALVINDECYQVRQIFAQKLHKALVKLLLPLEYMAIFALCAKDPVKERRAHARQCLLKNISIRREYIKQNPMATEKLLSLLPEYVVPYMIHLLAHDPDFTRSQDVDQLRDIKECLWFMLEVLMTKNENNSHAFMKKMAENIKLTRDAQSPDESKTNEKLYTVCDVALCVINSKSALCNADSPKDPVLPMKFFTQPEKDFCNDKSYISEETRVLLLTGKPKPAGVLGAVNKPLSATGRKPYVRSTGTETGSNINVNSELNPSTGNRSREQSSEAAETGVSENEENPVRIISVTPVKNIDPVKNKEINSDQATQGNISSDRGKKRTVTAAGAENIQQKTDEKVDESGPPAPSKPRRGRRPKSESQGNATKNDDLNKPINKGRKRAAVGQESPGGLEAGNAKAPKLQDLAKKAAPAERQIDLQR",cytotoxic activity,markedly lower cytotoxic activity
